According to the nanobody polyreactivity screen of Harvey et al. (2022):

Test: yeast display, Sf9 membrane polyspecificity reagent, FACS + sequencing; frameworks hold sequencing errors
In short: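 Polyreactivity labels are assigned by the sorting gate from which each nanobody was recovered. The gates were low and high (top ~1%), set on anti-HA fluorescence for expression and streptavidin fluorescence for reagent binding. Before sorting, galactose-induced (36–48 hours) yeast display cells were stained for 1 hour at 4 °C with 10% biotinylated, detergent-solubilized Sf9 membrane reagent.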

Row | Sequence | polyreactivity (PSR sort gate)
1 | QVQLVESGGGLVQAGGSLRLSCAASGSTFGAYTMGWYRQAPGKERELVAAISSDGSTYYADSVKGRFTISRDNAKNTVYLQMNSLKPEDTAVYYCNARYHFYGRADYSYYYLFDYWGQGTQVTVSS | low polyreactivity
2 | QVQLVESGGGLVQAGGSLRLSCAASGSTFGDYAMGWYRQAPGKERELVAAISVSGASTYYADSVKGRFTISRDNAKNTVYLQMNSLKPEDTAVYYCAATYDTIGDSWGQGTQVTVSS | low polyreactivity
3 | QVQLVESGGGLVQAGGSLRLSCAASGSTFGEYAMGWYRQAPGKERELVAVITWRDDSTYYADSVKGRFTISRDNAKNTVYLQMNSLKPEDTAVYYCNADIYQGNAGYIEVGTFGEYDYWGQGTQVTVSS | low polyreactivity
4 | QVQLVESGGGLVQAGGSLRLSCAASGSTFGFNAMGWYRPAPGKERELVAAINESGGDTYYADSVKGRFTISRDNAKNTVYLQMNSLKPEDTAVYYCAADEPSSVYGILVELEYWGQGTQVTVSS | high polyreactivity
5 | QVQLVESGGGLVQAGGSLRLSCAASGSTFGFNAMGWYRQAPGKERELVAAISRSGTRTYYADSVKGRFTISRDNAKNTVYLQMNSLKPEDTAVYYCAADSTLSRYDYWGQGTQVTVSS | high polyreactivity
6 | QVQLVESGGGLVQAGGSLRLSCAASGSTFGFNPMGWYRQAPGKERELVAAITGSGGSTYYADSVKGRFTISRDNAKNTVYLQMNSLKPEDTAVYYCARETYGDYVHYDYWGQGTQVTVSS | low polyreactivity
7 | QVQLVESGGGLVQAGGSLRLSCAASGSTFGFYAMGGYRQAPGKERELVAVISSGGGTNYADSVKGRFTISRDNAKNTVYLQMNSLKPEDTAVYYCAASRFALSGGYDYWGQGTQVTVSS | low polyreactivity
8 | QVQLVESGGGLVQAGGSLRLSCAASGSTFGFYAMGWFRQAPGKERELVAAISSSGSTYYADSVKGRFTISRDNAKNTVYVQINRLKPEDTAVYYCYADYWRYISSYDYWGQGTQVTVSS | low polyreactivity
9 | QVQLVESGGGLVQAGGSLRLSCAASGSTFGFYAMGWYRQAPGKERELVAVISSGDSTYYADSVKGRFTISRDNAKKTVYLQMNSLIPEDTAVDYCAKDALVIDGGGGYDYWGQGTQVTVSS | low polyreactivity
10 | QVQLVESGGGLVQAGGSLRLSCAASGSTFGFYAMGWYRQAPGKERELVAVISSGGGTNYADSVKGRFTISRDNAKNTVYLQMNSLKPEDTAVYYCAASRFALSGGYDYWGQGTQVTVTS | low polyreactivity
11 | QVQLVESGGGLVQAGGSLRLSCAASGSTFGGKAMGWYRQAPGKDREMVAAITGSGGRTFYADSVKGRFTISRDNAKNTVYLQMNSLKQEDTAVYSCAAYSYIYSVNYWGQVTQVTVSS | low polyreactivity
12 | QVQLVESGGGLVQAGGSLRLSCAASGSTFGGNAMGWYRQAPGKERELVAAISRSGTTTYYADSVKGRFTISRDNAKNTVYLQMNSLKPEDTAVYYCAADYVRSQYDYWGQGTQVTVSS | high polyreactivity
13 | QVQLVESGGGLVQAGGSLRLSCAASGSTFGGNAMGWYRQAPGKERELVAAISSSGGSTYYADSVKGRFTISRDNAKNTVYLQMNSLKPEDTAVYSCAALYHWTYDYWGQGTQVTVSS | low polyreactivity
14 | QVQLVESGGGLVQAGGSLRLSCAASGSTFGGNAMGWYRQAPGKERELVAAITVGGDSTYYADSVKGRFTISRDNAKNTVYLQMNSLKPEDTAVYYCAARHYWWYDYWGQGTQVTVSS | low polyreactivity
15 | QVQLVESGGGLVQAGGSLRLSCAASGSTFGGNAMGWYRQAPGKERELVAVISKRGGSTYYADSVKGRFTISRDYAKNTVYLQMNSLKPEDTAVYYCAATYSRYWSPTYDYWGQGTQVTVSS | high polyreactivity
16 | QVQLVESGGGLVQAGGSLRLSCAASGSTFGGNDMGWYRQAPGKERELVAAISSGTSTNYADSVKGRFTISRDNAKNTVYLQMNSLKPEDTAVYYCAAKWHVRGRGARYRYDYDYWGQGTQVTVSS | low polyreactivity
17 | QVQLVESGGGLVQAGGSLRLSCAASGSTFGGYAMGRYRQAPGKERELVAAISQSGTRTYYADSVKGRFTISRDNAKYTVYLQMNSLKPEDTAVYYCAARRLYYHPTLYYWGQGTQVTVSS | high polyreactivity
18 | QVQLVESGGGLVQAGGSLRLSCAASGSTFGGYAMGWYRLAPGKERELVAAISSSGTSTYYADSVKGRFTISRDNAKNTVYLQMNSLKPEDTAVYYCATDFSFFSRFDYWGQGTQVTVSS | low polyreactivity
19 | QVQLVESGGGLVQAGGSLRLSCAASGSTFGGYAMGWYRQAPGKERELVASISGGTRTNYADSVKGRFTISRDNAKNSVYLQMNSLKPEDTAVYYCAAEVGLPTWYTLPVDDYDYWGQGTQVTVSS | low polyreactivity
20 | QVQLVESGGGLVQAGGSLRLSCAASGSTFGGYAMGWYRQAPGKERELVASISGGTRTNYADSVKGRFTISRDNAKNTVYLQMNSLKPEDTAVYYCAAEVGLPTWYTLPVDDYDYWGQGTQVTVSS | low polyreactivity
21 | QVQLVESGGGLVQAGGSLRLSCAASGSTFGHNAMGWYRQAPGKERELVAAIDSGDGTTYADSVKGRFTISRDNAKNTVYFQMNSLKPEDTAVYYCAATTDRAEDDDNIGGYWGQGTQVTVSS | low polyreactivity
22 | QVQLVESGGGLVQAGGSLRLSCAASGSTFGHYTMGWYRQAPGKERELVAAITYSGGRTYYADSVKGRFTISRDNAKNTVYLQMNSLKPEDTAVYYCNAKSFRILDNFAYRVDYDYWGQGTQVTVSS | low polyreactivity

Row | Sequence | polyreactivity (PSR sort gate)
23 | QVQLVESGGGLVQAGGSLRLSCAASGSTFGINAMGWSRQAPGKERELVAAINSGTRTYYADSVKGRFTISRDNAKNNVYLQMNSLKPEDTAVYYCAARGVVGASGYYYWGQGTQVTVSS | high polyreactivity
24 | QVQLVESGGGLVQAGGSLRLSCAASGSTFGINDMGRYRQAPGKERELVASITRRGGTTYYADSVKGRFTISRDNAKNTVYLHMNSLKPEDTAVYYCNKTYRYGTPLYDYWGQGTQVTVSS | high polyreactivity
25 | QVQLVESGGGLVQAGGSLRLSCAASGSTFGIYAMGWYRPAPGKDREMVAAISSGVDTYYADSVKGRVTISRDNAKNTVDIQMNSLKPEDPAVYYCAADQFQGNSGFEYWGQGTQVTVSS | low polyreactivity
26 | QVQLVESGGGLVQAGGSLRLSCAASGSTFGIYAMGWYRQAPGKERELVAAISSGGSTNYADSVKGRFTISRDNAKNTVYLQMNSLKPEDTAVYYCAVESVYEYGGYVDSAYDYWGQGTQLTVSS | low polyreactivity
27 | QVQLVESGGGLVQAGGSLRLSCAASGSTFGIYAMGWYRQAPGKERELVAAITWRGSSTYYADSVKGRFTISRDNAKNTVYLQMNSLKPEDTAVYYCAAEDTFYEYYSWGQGTQVTVSS | high polyreactivity
28 | QVQLVESGGGLVQAGGSLRLSCAASGSTFGIYAMGWYRQAPGKERELVATITGRGGRTYYADSVKGRFTISRDNAKNTVYLQMNSLKQEDTAVYYCNAAYRGYYRYDYWGQGTQVTVSS | high polyreactivity
29 | QVQLVESGGGLVQAGGSLRLSCAASGSTFGKYAMGWYRPAPGKERELVAAITNGGRTNYADSVKGRFTISRDNAMNTVYLQMNSLKPEDTAVYYCNKARYGTDDYDYWGQGTQVTVSS | low polyreactivity
30 | QVQLVESGGGLVQAGGSLRLSCAASGSTFGKYAMGWYRQAPGKEREFVAAITWSGGRTYYADSVKGRFTISRDNAKNTVYLQMNSLKPEDTAVDYCAALWAYYSRGYYWGQGTQVTVSW | high polyreactivity
31 | QVQLVESGGGLVQAGGSLRLSCAASGSTFGKYAMGWYRQAPGKERELVAAITNGGRTNFADSVKGRFTISRDNAKNTVYLQMNSLKPEDTAVYFCNKARYGTDDYEYWGQGTQVTVSS | low polyreactivity
32 | QVQLVESGGGLVQAGGSLRLSCAASGSTFGLYAMGWYRQAPGKERELVAAIRWSGASTYYADSVKGRFTISRDNAKNTVYLQMNSLKPEDTAVYYCARRALGPRRGIRYDYWGQGTQVTVSS | high polyreactivity
33 | QVQLVESGGGLVQAGGSLRLSCAASGSTFGPNAMGWYRQAPGKERELVATISFRGGTTYYADSVKGRFTISRDNAKNTVYLQMNSLKPEDTAVYYCAVKVGYVRLLYHYYYWGQGTQVTVSS | high polyreactivity
34 | QVQLVESGGGLVQAGGSLRLSCAASGSTFGPNAMGWYRQAPGKERELVATISSGGSTYYADSVKGRFTISRDNAKNTVYLQMNSLKPEDTAVYYCNVLWLRSRRKYDYWGHGTQVTVSS | low polyreactivity
35 | QVQLVESGGGLVQAGGSLRLSCAASGSTFGPYAMGWYRPAPGKEMELVATITRNGGSTYYADSVKGRFTISRDNAKNTVYLQMNSLKPEDTAVYYCNAEGRWSSFTQRMDYWGQGTQVTVSS | low polyreactivity
36 | QVQLVESGGGLVQAGGSLRLSCAASGSTFGPYAMGWYRPAPGKERELVAAIRSGGSTYYADSVKGRFTISRDNAKNTVYLQMNSLKPEDTAVYYCAAGGHHSYTYWIYYYWGQGTQVTVSS | low polyreactivity
37 | QVQLVESGGGLVQAGGSLRLSCAASGSTFGPYAMGWYRQAPGKEREFVAGISKSTSSTYYADSVKGRFTISRDNAKNTVYLQMNSLKPEDTAVYYCAAQGGRNRGYRYYWGQGTQVTVSS | high polyreactivity
38 | QVQLVESGGGLVQAGGSLRLSCAASGSTFGPYAMGWYRQAPGKERELVATITRNGGSTYYADSVKGRFTISRDNAKNTVYLQMNSLKPEDTAVYYCNAEGRWSSFTQRMDYWGQGTQVTVSS | low polyreactivity
39 | QVQLVESGGGLVQAGGSLRLSCAASGSTFGPYAMGWYRQAPGQERELVATITRNGGSTYYADSVKGRFTISRDNAKNTVYLQMNSLKPEDTAVYYCAARLYYEIYDYGAVRIGYDYWGQGTQVTVSS | low polyreactivity
40 | QVQLVESGGGLVQAGGSLRLSCAASGSTFGPYTMGWKRPAPGKERELVATISSGGSTYYADSVKGRFTISRDNAKNTVYLQLNCLKPEDTAVYSCAKDFWYRSYDYWGQGTQVTLSS | low polyreactivity
41 | QVQLVESGGGLVQAGGSLRLSCAASGSTFGPYVMGRYRQAPGKDRELVAAITRSGGRTYYADSVKGRFTISRDNAKNTVYLQMNSLKPEDTAVYYCAAPPSEATSQRYKYNYWGQGTQVTVSS | high polyreactivity
42 | QVQLVESGGGLVQAGGSLRLSCAASGSTFGPYVMGWYRQAPGKERELVATITSDDSTNYADSVKGRFTISRDNAKNTVYLQMNSLKPEDTAVYYCAVERDYWTKASYYWGQGTQVTVSS | low polyreactivity
43 | QVQLVESGGGLVQAGGSLRLSCAASGSTFGQYVMAWYRQAPGKERELVAAISSGDSTNYADSVKGRFTISRDNAKNTVYLQMNSLKPEDTAVYYCAAARRPTYWPVYPYFGYEYWGQGTQVTVSS | low polyreactivity
